The values that follow come from US20250206836A1 (ONA THERAPEUTICS S L, published 2025).

Assay [1] concerns the target T1, human CD36 (on HEK 293 or SCC25 cells) (human, UniProt P16671 2-472). Description: cell-based or functional assay.
In assay [2] the target is T1, human CD36 (on HEK 293 or SCC25 cells). The assay can be described thus: cell-based or functional assay. The source holds these as a separate data set.
Assay [3] shares this target. Description: cell-based or functional assay. This is another data set of the same source.
Assay [4] shares this target. The assay can be described thus: FACS, SCC25 cells stably expressing human CD36. Background: A flow cytometer gives signals particle by particle.
Description: SCC25 cells were treated with 10-fold serial dilution of each antibody (5 dilutions starting at 100 nM). After incubation with the cells, an anti-human fluorescently labelled antibody was added to the cell media, allowed to incubate further, and the unbound antibody was washed off of the cells. Subsequently, the cells were subjected to FACS analysis to determine antibody binding to the cells. The results were fitted to a sigmoidal titration curve. Using a nonlinear regression model, the EC₅₀ values for each antibody were calculated from the GeoMFI and MFI values using the log(agonist) versus response (four parameters) fitting on the data transformed according to X=Log[X] in GraphPad PRISM.
Assay [5] has the same target. The assay can be described thus: FACS, SCC25 cells stably overexpressing human CD36.
Description: (§1) After transiently transfecting the HEK 293 cells with a CD36 expression construct, cells were treated with three-fold serial dilution of each candidate antibody (10 dilutions starting at 500 nM). […] After incubation with the cells, an anti-human fluorescently labelled antibody was added to the cell media, allowed to incubate further, and the unbound antibody was washed off of the cells. Subsequently, the cells were subjected to FACS analysis to determine antibody binding to the cells. The results were fitted to a sigmoidal titration curve. Using a nonlinear regression model, the EC₅₀ values for each antibody were calculated from the GeoMFI and MFI values using the log(agonist) versus response (four parameters) fitting on the data transformed according to X=Log[X] in GraphPad PRISM.
The target is the same in assay [6]. Description: FACS, HEK 293 cells transiently overexpressing CD36.
Description: as §1
Assay [7] deals with T2, nonhuman primate CD36 (on HEK 293 cells) (cynomolgus monkey / rhesus macaque, UniProt P16671 2-472 (human entry)).
T2 construct: also called non-human primate CD36 (cynomolgus)
T2 sequence (P16671 other isoform, or with tags, fused parts or gaps limits assumed): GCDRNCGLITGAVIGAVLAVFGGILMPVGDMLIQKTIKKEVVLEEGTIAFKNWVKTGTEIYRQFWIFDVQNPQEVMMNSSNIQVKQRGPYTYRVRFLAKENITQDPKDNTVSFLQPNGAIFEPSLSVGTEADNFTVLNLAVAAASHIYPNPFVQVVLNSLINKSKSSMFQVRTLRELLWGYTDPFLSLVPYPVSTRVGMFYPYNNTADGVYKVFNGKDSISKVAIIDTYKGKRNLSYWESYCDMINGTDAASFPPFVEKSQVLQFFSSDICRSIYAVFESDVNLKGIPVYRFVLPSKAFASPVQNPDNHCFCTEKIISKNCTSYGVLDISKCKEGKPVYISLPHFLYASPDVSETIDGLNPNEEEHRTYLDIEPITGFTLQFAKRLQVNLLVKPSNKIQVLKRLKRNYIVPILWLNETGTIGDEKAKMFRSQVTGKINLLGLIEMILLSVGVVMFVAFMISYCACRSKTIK
The assay is described as above.
Description: as §1

Assay [8] deals with T3, mouse CD36 (on HEK 293 cells) (mouse, UniProt Q08857 1-472).
T3 construct: also called Murine CD36
T3 sequence (Q08857 whole entry): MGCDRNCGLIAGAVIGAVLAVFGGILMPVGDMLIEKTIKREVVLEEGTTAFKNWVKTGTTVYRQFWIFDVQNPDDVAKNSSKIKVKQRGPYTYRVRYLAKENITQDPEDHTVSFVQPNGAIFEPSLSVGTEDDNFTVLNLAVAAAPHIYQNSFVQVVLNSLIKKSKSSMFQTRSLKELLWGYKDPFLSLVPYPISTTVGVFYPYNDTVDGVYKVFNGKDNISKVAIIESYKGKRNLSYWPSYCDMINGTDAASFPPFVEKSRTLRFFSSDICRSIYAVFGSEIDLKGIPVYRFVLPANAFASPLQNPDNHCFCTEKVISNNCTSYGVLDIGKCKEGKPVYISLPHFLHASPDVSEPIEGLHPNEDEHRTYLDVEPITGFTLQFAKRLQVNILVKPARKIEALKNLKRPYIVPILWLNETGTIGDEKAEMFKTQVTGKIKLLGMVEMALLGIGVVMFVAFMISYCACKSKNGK
The assay is described as above.
Description: as §1

The target of a further assay is T4, human CD36 (His-tagged) (human, UniProt P16671 30-439).
T4 construct: not shown: His tag
T4 sequence (P16671 30-439 limits assumed): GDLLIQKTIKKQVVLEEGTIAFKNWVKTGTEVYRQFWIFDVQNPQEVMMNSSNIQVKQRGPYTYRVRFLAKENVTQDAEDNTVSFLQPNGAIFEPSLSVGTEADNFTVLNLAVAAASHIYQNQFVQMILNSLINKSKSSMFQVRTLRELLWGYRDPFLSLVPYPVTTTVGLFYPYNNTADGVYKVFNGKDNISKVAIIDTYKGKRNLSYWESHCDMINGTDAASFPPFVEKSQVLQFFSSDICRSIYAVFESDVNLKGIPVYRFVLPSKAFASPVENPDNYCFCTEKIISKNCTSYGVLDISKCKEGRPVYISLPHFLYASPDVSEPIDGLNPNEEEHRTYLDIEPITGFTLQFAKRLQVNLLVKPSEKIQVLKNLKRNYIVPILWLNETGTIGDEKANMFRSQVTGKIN
The assay can be described thus: SPR (Biacore T200), His-captured CD36, bivalent analyte model. On the technique in general: SPR reads the build-up and loss of mass on a sensor chip optically.

Another assay addresses human FcRn (human, UniProt P55899 24-297; P61769 21-119). The assay can be described thus: SPR at pH 5.8, antibody immobilized through its light chains, soluble human FcRn.
For assay [9], the target named is T5, human CD36 (Sino Biological) (human, UniProt P16671 30-439).
T5 construct: Bought protein coated on ELISA plates
T5 sequence (P16671 30-439 limits assumed): as above
Description: ELISA, plates coated with human CD36 (Sino Biological), antibody titrated, OD630nm.
Description: Binding was first tested using an ELISA assay in which 96-well ELISA plates were coated with human CD36 (Sino Biological) or mouse CD36 protein.

The target in the next assay is T6, C1q human protein (human, UniProt P02745 23-245; P02746 28-253; P02747 29-245).
T6 construct: also called complement C1q protein
T6 sequence (P02745 23-245 limits assumed, chain 1 of 3): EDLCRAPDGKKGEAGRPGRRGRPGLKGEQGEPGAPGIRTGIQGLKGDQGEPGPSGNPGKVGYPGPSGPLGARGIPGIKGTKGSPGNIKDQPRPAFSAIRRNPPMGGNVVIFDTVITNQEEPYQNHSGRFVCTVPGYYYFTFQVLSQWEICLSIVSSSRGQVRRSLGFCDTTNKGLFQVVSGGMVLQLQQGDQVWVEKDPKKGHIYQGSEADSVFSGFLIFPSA
T6 sequence (P02746 28-253 limits assumed, chain 2 of 3): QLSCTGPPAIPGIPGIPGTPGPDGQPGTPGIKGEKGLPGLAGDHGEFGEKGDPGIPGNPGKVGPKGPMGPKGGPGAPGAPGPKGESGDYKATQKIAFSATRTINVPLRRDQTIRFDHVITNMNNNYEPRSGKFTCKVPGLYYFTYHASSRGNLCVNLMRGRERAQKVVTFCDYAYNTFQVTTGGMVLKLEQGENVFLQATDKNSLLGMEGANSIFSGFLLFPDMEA
T6 sequence (P02747 29-245 limits assumed, chain 3 of 3): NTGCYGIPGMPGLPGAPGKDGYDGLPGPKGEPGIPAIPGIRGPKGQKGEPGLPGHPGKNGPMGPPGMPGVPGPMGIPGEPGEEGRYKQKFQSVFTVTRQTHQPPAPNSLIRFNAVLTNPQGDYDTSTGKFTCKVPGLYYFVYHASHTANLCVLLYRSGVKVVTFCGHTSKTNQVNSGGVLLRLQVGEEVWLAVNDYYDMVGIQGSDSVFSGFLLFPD
Description: ELISA, plates coated with the antibody, C1q human protein titrated, Mean Absorbance (OD Units). (In general: In an ELISA, binding on a coated surface is turned into a signal by an enzyme label.)

Another assay has as its target T7, Human FcγRIIb (human, UniProt P31994).
T7 construct: soluble receptor protein; bar 7 of each group
T7 sequence (receptor, looked up): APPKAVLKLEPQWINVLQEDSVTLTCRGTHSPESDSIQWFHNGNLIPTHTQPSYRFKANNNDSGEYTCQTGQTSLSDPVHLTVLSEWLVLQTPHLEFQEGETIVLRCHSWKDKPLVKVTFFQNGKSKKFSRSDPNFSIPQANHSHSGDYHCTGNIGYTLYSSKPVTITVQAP
The assay can be described thus: SPR, antibody immobilized through its light chains, soluble receptor injected; Mean Relative Response (RU).

A further assay addresses T8, Cyno FcγRIIa (Macaca fascicularis, UniProt A0A140HDN0).
T8 construct: soluble receptor protein; bar 8 of each group
T8 sequence (receptor): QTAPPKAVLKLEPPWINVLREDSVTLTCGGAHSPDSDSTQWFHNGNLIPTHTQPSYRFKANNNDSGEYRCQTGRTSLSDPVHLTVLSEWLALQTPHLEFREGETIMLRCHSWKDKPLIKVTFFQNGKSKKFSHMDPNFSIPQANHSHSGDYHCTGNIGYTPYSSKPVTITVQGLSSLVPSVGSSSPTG
The description is as above.

The next assay has as its target T9, Human FcγRI (human, UniProt P12314).
T9 construct: soluble receptor protein; bar 10 of each group
Described as above.

The next assay has as its target T10, Human FcγRIIIa (158F) (human, UniProt P08637).
T10 construct: soluble receptor protein; bar 1 of each group
The assay is described as above.

For a further assay, the target named is T11, Human FcγRIIIa (158V) (human, UniProt P08637).
T11 construct: soluble receptor protein; bar 2 of each group
T11 sequence (P08637 17-208 F176V limits assumed): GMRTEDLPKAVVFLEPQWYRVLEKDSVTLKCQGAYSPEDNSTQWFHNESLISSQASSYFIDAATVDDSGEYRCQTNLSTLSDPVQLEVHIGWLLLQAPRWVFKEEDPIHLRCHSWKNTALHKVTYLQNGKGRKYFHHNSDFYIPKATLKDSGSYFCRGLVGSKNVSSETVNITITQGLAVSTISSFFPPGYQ
The assay is described as above.

A further assay has as its target T12, Human FcγRIIIb (human, UniProt O75015).
T12 construct: soluble receptor protein; bar 3 of each group
The description is as above.

In another assay the target is T13, Cyno FcγRIII (cynomolgus monkey, UniProt Q8SPW2).
T13 construct: soluble receptor protein; bar 4 of each group
T13 sequence (Q8SPW2 17-208 limits assumed): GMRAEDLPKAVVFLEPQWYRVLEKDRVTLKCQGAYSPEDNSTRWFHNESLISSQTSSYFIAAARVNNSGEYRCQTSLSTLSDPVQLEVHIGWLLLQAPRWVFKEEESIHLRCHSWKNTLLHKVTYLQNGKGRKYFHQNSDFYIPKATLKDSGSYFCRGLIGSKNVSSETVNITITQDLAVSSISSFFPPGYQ
The description is as above.

The target in a further assay is T14, Human FcγRIIa (131H) (human, UniProt P12318).
T14 construct: soluble receptor protein; bar 5 of each group
T14 sequence (receptor, looked up): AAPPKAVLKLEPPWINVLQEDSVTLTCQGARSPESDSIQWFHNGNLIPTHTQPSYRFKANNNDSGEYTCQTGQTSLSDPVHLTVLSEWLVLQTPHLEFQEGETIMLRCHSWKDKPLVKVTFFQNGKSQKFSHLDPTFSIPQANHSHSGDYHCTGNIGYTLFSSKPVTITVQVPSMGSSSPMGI
Described as above.

In another assay the target is T15, Human FcγRIIa (131R) (human, UniProt P12318).
T15 construct: soluble receptor protein; bar 6 of each group
T15 sequence (receptor, looked up): T14 sequence (receptor, looked up) with H132R
The assay is described as above.

For a further assay, the target named is T16, Cyno FcγRIIb (Macaca fascicularis, UniProt A0A140HDP4).
T16 construct: soluble receptor protein; bar 9 of each group
T16 sequence (receptor): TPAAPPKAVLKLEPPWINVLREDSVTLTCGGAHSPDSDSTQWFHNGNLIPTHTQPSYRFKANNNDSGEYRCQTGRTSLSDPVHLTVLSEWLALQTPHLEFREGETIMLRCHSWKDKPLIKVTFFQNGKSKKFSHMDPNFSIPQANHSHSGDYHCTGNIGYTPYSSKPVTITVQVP
The description is as above.

The target of assay [10] is T2, nonhuman primate CD36 (on HEK 293 cells). The assay can be described thus: FACS, HEK 293 cells transiently overexpressing CD36. This is another data set of the same source.
Description: as §1
Assay [11] deals with T17, purified biotin-tagged human CD36 (human, UniProt P16671 30-439, limits assumed, biotin tag, site not stated). The assay can be described thus: AlphaScreen competition; competitor 1G04 on acceptor beads.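 Also: streptavidin donor beads excited at 680 nm release singlet oxygen, and the light signal needs a nearby acceptor bead, with 30 min donor-bead incubation at 25 °C in the dark.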
T17 sequence (P16671 30-439 limits assumed): as the sequence (P16671 30-439 limits assumed) above
Assay [12] addresses T17, purified biotin-tagged human CD36. The assay can be described thus: AlphaScreen competition; competitor FA6-152 on acceptor beads.
Description: This was done using the AlphaScreen® bead-based microplate assay. […] AlphaLISA® Streptavidin Donor Beads were then added and the mix incubated for 30 min at 25° C. in the dark. The donor bead contains a photosensitizer, which upon excitation by light at 680 nm, converts oxygen (O₂) into an excited form, singlet oxygen. Singlet oxygen molecules have a reduced lifetime (4 microseconds half-life) and can diffuse approximately 200 nm in solution before falling back to ground state. In the absence of acceptor beads, the singlet oxygen molecules fall back to ground state without producing any light signal.

Changes are numbered by the printed parent chain. Names and notes keep the numbering of the source.

T1 sequence (P16671 2-472 limits assumed): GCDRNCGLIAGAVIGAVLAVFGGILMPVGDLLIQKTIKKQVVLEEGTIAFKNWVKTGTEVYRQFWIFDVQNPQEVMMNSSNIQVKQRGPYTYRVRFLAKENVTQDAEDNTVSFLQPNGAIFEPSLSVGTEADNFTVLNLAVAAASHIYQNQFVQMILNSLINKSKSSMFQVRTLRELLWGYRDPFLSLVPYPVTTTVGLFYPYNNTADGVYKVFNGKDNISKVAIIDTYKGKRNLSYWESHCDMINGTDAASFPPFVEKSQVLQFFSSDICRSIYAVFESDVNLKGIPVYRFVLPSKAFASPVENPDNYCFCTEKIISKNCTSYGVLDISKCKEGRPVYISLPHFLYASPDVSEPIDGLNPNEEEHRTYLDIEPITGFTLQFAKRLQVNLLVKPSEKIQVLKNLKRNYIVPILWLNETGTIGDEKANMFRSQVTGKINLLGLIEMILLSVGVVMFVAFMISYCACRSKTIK
T12 sequence (O75015 17-200 limits assumed): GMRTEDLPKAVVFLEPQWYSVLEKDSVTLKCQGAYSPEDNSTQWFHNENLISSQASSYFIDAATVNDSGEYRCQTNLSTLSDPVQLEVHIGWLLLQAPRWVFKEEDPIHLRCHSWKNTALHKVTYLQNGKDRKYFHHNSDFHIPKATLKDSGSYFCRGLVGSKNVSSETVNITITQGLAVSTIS
Chain of human FcRn (P55899 24-297 limits assumed, chain 1 of 2): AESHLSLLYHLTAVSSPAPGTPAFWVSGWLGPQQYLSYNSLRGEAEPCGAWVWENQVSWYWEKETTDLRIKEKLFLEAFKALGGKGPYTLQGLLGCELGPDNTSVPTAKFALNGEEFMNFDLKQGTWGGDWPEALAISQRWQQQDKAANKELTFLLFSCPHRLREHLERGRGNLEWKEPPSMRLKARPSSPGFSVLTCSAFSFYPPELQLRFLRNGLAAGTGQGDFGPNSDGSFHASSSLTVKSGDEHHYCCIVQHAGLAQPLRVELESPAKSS
Chain of human FcRn (P61769 21-119 limits assumed, chain 2 of 2): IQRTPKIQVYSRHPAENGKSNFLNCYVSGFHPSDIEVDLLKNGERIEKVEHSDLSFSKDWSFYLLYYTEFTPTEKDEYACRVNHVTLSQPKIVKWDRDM
T9 sequence (P12314 16-288 limits assumed): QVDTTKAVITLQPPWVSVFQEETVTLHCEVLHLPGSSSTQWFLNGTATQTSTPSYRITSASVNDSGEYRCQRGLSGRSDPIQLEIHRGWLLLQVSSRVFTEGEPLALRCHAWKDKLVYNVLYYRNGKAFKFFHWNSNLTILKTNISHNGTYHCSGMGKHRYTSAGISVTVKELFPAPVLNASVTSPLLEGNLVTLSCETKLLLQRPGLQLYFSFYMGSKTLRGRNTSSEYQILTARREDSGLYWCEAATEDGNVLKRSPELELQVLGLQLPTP
T10 sequence (P08637 17-208 limits assumed): as the sequence (P08637 17-208 F176V limits assumed) above, with V160F counted along it
Description for C1q human protein: Binding to complement C1q protein was also measured, using a standard ELISA assay in which 96-well ELISA plates were coated with the tested antibodies and C1q human protein was added (2.5-fold serial dilution starting at 250 g/mL).
Description for Cyno FcγRIII: (§2) The binding of the different Fc-formatted anti-CD36 antibodies to FcγRs and FcRn was measured by SPR by immobilizing the antibodies through their light chains. The setup for these assays orients the antibody such that the Fc domain is solvent-exposed, allowing quantification of the interaction with soluble receptor proteins. Antibodies with well-defined binding properties were included as positive/negative controls in all the assays.
Description for Cyno FcγRIIa: as §2
Description for Cyno FcγRIIb: as §2
Description for Human FcγRIIIa (158F): as §2
Description for Human FcγRIIIa (158V): as §2
Description for Human FcγRIIIb: as §2
Description for Human FcγRIIa (131H): as §2
Description for Human FcγRIIa (131R): as §2
Description for Human FcγRIIb: as §2
Description for human CD36 (His-tagged): The binding affinity of the reported antibodies for human CD36 was also measured by surface plasmon resonance (SPR) using a Biacore T200. […] For each single-cycle experiment, human CD36 (His-tagged) was captured at low density (approximately 40 RU) and a titration of five antibody concentrations (diluted in running buffer) were injected over the captured antigen and then the dissociation of the complex was measured. A double referencing method was employed in which data from the reference surfaces where no antigen was captured (fc 1) were subtracted from the antigen bound capture surface (fc 2). Blank injections of buffer were run for every antibody titration cycle and then subtracted from analyte injection cycles, to correct for small changes in the capture surface density. Surface regeneration between cycles was performed by injecting Glycine pH 1.5 for 60 s. All analysis was performed at 20° C. in HBS-P running buffer (flow 30 μL/min), and the sample rack was kept at 6° C. during experimental runs. Data was fitted to a bivalent analyte model from which the kinetic and thermodynamic binding constants were derived.
Description for human FcRn: as §2

B1: 1G04 (antibody, human IgG1, kappa, L234A L235A)
heavy: not shown
light: SIVMTQTPKFLLVSAGDRITITCKASQSVSDDVAWYQQKPGQSPKLLIYYASNRYTGVPDRFTGSGYGTDFTFTISTVQAEDLAVYFCQQDYSSPLTFGAGTKLEIKRTVAAPSVFIFPPSDEQLKSGTASVVCLLNNFYPREAKVQWKVDNALQSGNSQESVTEQDSKDSTYSLSSTLTLSKADYEKHKVYACEVTHQGLSSPVTKSFNRGEC
notes: Chimeric human IgG1 with L234A/L235A (LALA); variable region of ONA-0-v1; also called 01G04; 001G04; copies: 2 + 2
One may read the EC50 as the concentration needed to bring the measured effect to its halfway point. One may read the koff as a measure of how fast the partners let go of each other. What is called kon is the rate constant with which the complex forms. The EC50 (read off the curve) is the concentration at which the effect is half-maximal. On to B1, for which the “Percent Fatty Acid Uptake Inhibition” value in [1] amounted to 30.5%. The “IC50 of fatty acid uptake inhibition (BODIPY FL C16, HEK hCD36 cells)” value in [2] came to 1 nM. Further, in [3], the “IC50 of oxLDL uptake inhibition (DiI-oxLDL, SCC25 cells)” value was 0.36 nM. In addition, the EC50 in assay [4] is 0.42 nM; in [5], 0.34 nM; in assay [6], 2.07 nM; in [7], 1.23 nM; in [8], 1.99 nM. The Kd with human CD36 (His-tagged) turned out to be 3.2 nM; in the assay with human FcRn it was 676 nM. The koff in the assay with human CD36 (His-tagged) stood at 0.0094 s⁻¹. Also, the kon with human CD36 (His-tagged) worked out at 2.9e+06 M⁻¹ s⁻¹. The “EC50 (read off the curve)” value in assay [9] was around 0.1 nM. In addition, the binding result is given as “no binding (tested: 250 µg/mL C1q (highest point))” in the assay with C1q human protein; “binds” with Human FcγRIIb; “no binding” with Cyno FcγRIIa; “binds” with Human FcγRI; “binds” with Human FcγRIIIa (158F); “binds” in the assay with Human FcγRIIIa (158V). Moreover, the binding result in the assay with Human FcγRIIIb, with Cyno FcγRIII, with Human FcγRIIa (131H) and with Human FcγRIIa (131R) was “binds” each time.

B2: 1G06 (antibody, human IgG1, kappa)
heavy: QVQLKQSGADLVRPGASVKLSCKASGYTFTDYYINWVKQRPGQGLEWIARIYPGSGNTYYNEKFKGKATLTAEKSSSTAYMQLSSLTSEDSAVYFCARGIGGGFGMDYWGQGTSVTVSSASTKGPSVFPLAPSSKSTSGGTAALGCLVKDYFPEPVTVSWNSGALTSGVHTFPAVLQSSGLYSLSSVVTVPSSSLGTQTYICNVNHKPSNTKVDKKVEPKSCDKTHTCPPCPAPESTRGPSVFLFPPKPKDTLMISRTPEVTCVVVDVSHEDPEVKFNWYVDGVEVHNAKTKPREEQYNSTYRVVSVLTVLHQDWLNGKEYKCKVSNKALPAPIEKTISKAKGQPREPQVYTLPPSRDELTKNQVSLTCLVKGFYPSDIAVEWESNGQPENNYKTTPPVLDSDGSFFLYSKLTVDKSRWQQGNVFSCSVMHEALHNHYTQKSLSLSPGK
light: B1 light
notes: Variable regions of 1G04 on human IgG1 with L234S, L235T, G236R (STR); also called STR; copies: 2 + 2
In assay [4], B2 returned a concentration giving a half-maximal response (EC50) of 0.38 nM. This molecule also displayed a Kd in the assay with human FcRn of 629 nM. For the same molecule, the “EC50 (read off the curve)” value in assay [9] is around 0.1 nM. In addition, the binding result with C1q human protein was “no binding (tested: 250 µg/mL C1q (highest point))”; with Human FcγRIIb it was “no binding”; with Cyno FcγRIIa, “no binding”; with Cyno FcγRIIb it was “no binding”; with Human FcγRI, “no binding”; with Human FcγRIIIa (158F), “binds”. For the same molecule, the binding result is reported as “binds” with Human FcγRIIIa (158V); “binds” with Human FcγRIIIb; “no binding” with Cyno FcγRIII; “no binding” with Human FcγRIIa (131H); “no binding” with Human FcγRIIa (131R).

B3: 31G04 (antibody, human IgG1, V domains shown)
VH: QVQLQQSGSELRSPGSSVKLSCKDFDSEVFPIAYMSWVRQKPGHGFEWIGDILPSIGSTIYGEKFEDKATLDADTVSNTAYLELNSLTSEDSAIYYCARDYYGSSYGYFDVWGAGTTVTVPS
VL: DIVLTQSPASLAVSLGQRATISCRASESVDSYGNSFMHWYQQKPGQPPKLLIYRASNLESGIPARFSGSGSRTDFTLTINPVEADDVATYYCQQSNEDPYTFGGGTKLEIK
notes: Chimeric: mouse variable regions on human IgG1 LALA (L234A/L235A)
Regarding B3, the binding result in assay [10] is recorded as “no binding (tested: 500 nM top concentration)”. Moreover, the figures for the EC50 in assay [11] and in assay [12] were 0.27 nM and 2.5 nM, respectively.

B4: 26G04 (antibody, human IgG1, V domains shown)
VH: QVQMKESGAELMKPGASVKISCKATGYIFSNYWIEWLKERPGHGLEWIGDFLPGSSSANYNEKFKGKATFTADTSSNTAYMQLSSLTSEDSAVYYCVPFTVEVTDAMDYWGQGTSVTVSS
VL: DIVLTQSHKFMSTSVGDRVSITCKASQDVSTAVAWYQQKPGQSPKLLIYSASYRYTGVPDRFTGSGSGTDFTFTISSVQAEDLAVYYCQQHYSTPRTFGGGTKLEIK
notes: as for B3
In the case of B4, the binding result in assay [10] is reported as “no binding (tested: 500 nM top concentration)”. The EC50 in assay [6] is 0.72 nM; in [8], 158 nM; in assay [11] it was 0.46 nM; in [12], 2.66 nM.
